The text below walks through data of patent publication US20110150870A1 (UNITED STATES OF AMERICA AS REPRESENTED BY TH, published 2011).

The target of the experiment is T1, tetanus toxoid (UniProt P04958 2-1315).
T1 construct: also called TT
In words: ELISA, 100 ng protein coated per well, anti-human Fab-HRP detection. Background: In an ELISA, binding on a coated surface is turned into a signal by an enzyme label.

T1 sequence (P04958 2-457 limits assumed, chain 1 of 2): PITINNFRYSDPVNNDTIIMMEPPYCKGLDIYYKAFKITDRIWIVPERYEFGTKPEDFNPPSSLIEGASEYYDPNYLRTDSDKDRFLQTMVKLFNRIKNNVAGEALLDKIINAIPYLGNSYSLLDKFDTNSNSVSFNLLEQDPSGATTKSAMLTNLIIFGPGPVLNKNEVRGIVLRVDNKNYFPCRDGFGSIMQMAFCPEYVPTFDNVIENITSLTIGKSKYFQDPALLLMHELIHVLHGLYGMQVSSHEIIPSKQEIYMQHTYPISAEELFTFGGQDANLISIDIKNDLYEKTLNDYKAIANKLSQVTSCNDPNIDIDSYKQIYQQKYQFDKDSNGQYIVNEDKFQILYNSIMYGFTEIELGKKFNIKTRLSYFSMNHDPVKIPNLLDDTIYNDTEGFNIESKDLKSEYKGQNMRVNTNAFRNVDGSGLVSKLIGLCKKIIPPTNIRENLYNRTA
T1 sequence (P04958 458-1315 limits assumed, chain 2 of 2): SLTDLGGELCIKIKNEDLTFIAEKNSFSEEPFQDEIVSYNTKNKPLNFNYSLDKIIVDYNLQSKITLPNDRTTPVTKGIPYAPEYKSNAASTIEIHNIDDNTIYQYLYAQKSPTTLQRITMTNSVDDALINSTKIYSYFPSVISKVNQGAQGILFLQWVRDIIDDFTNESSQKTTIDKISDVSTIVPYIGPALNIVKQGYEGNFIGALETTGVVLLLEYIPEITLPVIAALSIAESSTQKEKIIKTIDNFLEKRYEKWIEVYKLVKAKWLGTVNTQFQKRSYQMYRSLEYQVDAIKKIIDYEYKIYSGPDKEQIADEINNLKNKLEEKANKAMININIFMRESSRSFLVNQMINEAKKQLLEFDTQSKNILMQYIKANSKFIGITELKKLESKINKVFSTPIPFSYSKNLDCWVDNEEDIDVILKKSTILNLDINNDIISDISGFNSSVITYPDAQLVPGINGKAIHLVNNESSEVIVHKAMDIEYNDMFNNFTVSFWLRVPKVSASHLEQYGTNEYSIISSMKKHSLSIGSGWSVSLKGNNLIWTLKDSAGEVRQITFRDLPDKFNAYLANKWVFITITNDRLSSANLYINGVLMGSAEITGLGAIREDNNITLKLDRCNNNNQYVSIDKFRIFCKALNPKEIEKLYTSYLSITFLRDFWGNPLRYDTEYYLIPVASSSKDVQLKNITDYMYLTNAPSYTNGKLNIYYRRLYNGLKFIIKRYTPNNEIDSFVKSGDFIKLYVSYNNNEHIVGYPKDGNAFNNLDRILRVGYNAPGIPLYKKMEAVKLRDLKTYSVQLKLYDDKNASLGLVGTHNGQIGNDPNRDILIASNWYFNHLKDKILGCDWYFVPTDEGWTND

B1: KYK-2.0 Fab (Fab, V domains shown)
VH: QVQLVESGGGLVKPGGSLRLSCAASGFTFSSYGMHWVRQAPGKGLEWVAFIRYDGSNKYYADSVKGRFTISRDNSKNTKYLQMNSLRAEDTAVYYCAKDRGLGDGTYFDYWGQGTTVTVSS
VL: QSALTQPASVSGSPGQSITISCSGSSSNIGNNAVNWYQQLPGKAPKLLIYYDDLLPSGVSDRFSGSKSGTSAFLAISGLQSEDEADYYCAAWDDSLNGPVFGGGTKLTVL
notes: Human Fab (lambda) with human constant domains and a C-terminal (His)6 tag, expressed in E. coli from pC3C-His and purified by IMAC
Take B1: the binding result is “no binding”.

B2: KYK-1.0 Fab (Fab, V domains shown)
VH: EVQLVESGGGVVQPGGSLRLSCAASGFTFSSYGMHWVRQAPGKGLEWVAFIRYDGSNKYYADSVKGRFTISRDNSKNTKYLQMNSLRAEDTAVYYCAKDRFGYYLDYWGQGTLVTVSS
VL: QPVLTQPSSVSVAPGETARIPCGGDDIETKSVHWYQQKPGQAPVLVIYDDDDRPSGIPERFFGSNSGNTATLSISRVEAGDEADYYCQVWDDNNDEWVFGGGTQLTVL
notes: Human Fab with human constant domains (lambda light chain) and a C-terminal (His)6 tag, expressed in E. coli from pC3C-His and purified by IMAC
In the case of B2, the binding result is “no binding”.
